The values below come from the supplement of paper PMC9112550, “Optimization of the antimicrobial peptide Bac7 by deep mutational scanning” (BMC Biology, 2022).
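Also: peptides expressed intracellularly from a pBAD plasmid library in pooled LB shake-flask culture, induced with 0.3% L-arabinose, DNA abundance read by NGS, three biological replicates, DESeq2 with apeglm shrinkage.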

The subject of this data set is Escherichia coli TOP10. Description: shrunken log2 fold change of peptide-encoding DNA abundance (4.5 h post-induction vs induction); higher = less antimicrobial activity (less host growth inhibition). The conditions noted are these: time post-induction: 4.5 h; library: site-saturation at positions 5, 18, 19, 20.
Regarding RRIRARPPRLPRPRPRPKEEPRP, the “shrunken log2 fold change” value was -0.0728. With RRIRNRPPRLPRPRPRPKDIPRP, the “shrunken log2 fold change” value turned out to be 0.0127. Turning to RRIRMRPPRLPRPRPRPLTGPRP, the “shrunken log2 fold change” value was 0.0753. Take RRIRPRPPRLPRPRPRPEWAPRP: the “shrunken log2 fold change” value came to 2.06.

RRIRARPPRLPRPRPRPPINPRP: the “shrunken log2 fold change” value was -0.192. As to RRIRDRPPRLPRPRPRPVDLPRP, the “shrunken log2 fold change” value was 0.0194. For RRIRGRPPRLPRPRPRPVKGPRP, the “shrunken log2 fold change” value is 0.276. As for RRIRDRPPRLPRPRPRPLPLPRP, the “shrunken log2 fold change” value is -0.0937. As for RRIRPRPPRLPRPRPRPMEQPRP, the “shrunken log2 fold change” value is 0.0098.

As to RRIRERPPRLPRPRPRPCDIPRP, the “shrunken log2 fold change” value was -0.329.

Consider RRIRWRPPRLPRPRPRPVRYPRP, for which the “shrunken log2 fold change” value was 0.00421.

For the sequence RRIRNRPPRLPRPRPRPQHPPRP, the “shrunken log2 fold change” value is -0.325. As for RRIRERPPRLPRPRPRPYRIPRP, the “shrunken log2 fold change” value is -0.0789. Turning to RRIRLRPPRLPRPRPRPQNAPRP, the “shrunken log2 fold change” value amounted to 0.223. In the case of RRIRGRPPRLPRPRPRPSQRPRP, the “shrunken log2 fold change” value is 0.181.

Turning to RRIRARPPRLPRPRPRPKNLPRP, the “shrunken log2 fold change” value was -0.181. The figure for RRIRCRPPRLPRPRPRPWIIPRP is -0.577.

With RRIRHRPPRLPRPRPRPDLSPRP, the “shrunken log2 fold change” value is -0.000678. For the sequence RRIRDRPPRLPRPRPRPFHNPRP, the “shrunken log2 fold change” value was -0.271. In the case of RRIRHRPPRLPRPRPRPVHIPRP, the “shrunken log2 fold change” value is -0.035.

Consider RRIRWRPPRLPRPRPRPDGQPRP, for which the “shrunken log2 fold change” value is -0.000921. With RRIRMRPPRLPRPRPRPMEDPRP, the “shrunken log2 fold change” value was 0.0119. RRIRRRPPRLPRPRPRPELQPRP: the “shrunken log2 fold change” value came out at 0.212.

Take RRIRPRPPRLPRPRPRPVPWPRP: the “shrunken log2 fold change” value stood at 0.548.

For the sequence RRIRSRPPRLPRPRPRPRIKPRP, the “shrunken log2 fold change” value is -0.00375. RRIRKRPPRLPRPRPRPDRSPRP: the “shrunken log2 fold change” value is -0.231. As to RRIRCRPPRLPRPRPRPNHNPRP, the “shrunken log2 fold change” value was -0.975.

For RRIRWRPPRLPRPRPRPTMGPRP, the “shrunken log2 fold change” value stood at 0.272. Regarding RRIRIRPPRLPRPRPRPGFPPRP, the “shrunken log2 fold change” value amounted to 0.186. Turning to RRIRVRPPRLPRPRPRPTPDPRP, the “shrunken log2 fold change” value worked out at 0.182. For the sequence RRIRNRPPRLPRPRPRPYSKPRP, the “shrunken log2 fold change” value is -0.926. As to RRIRTRPPRLPRPRPRPLYVPRP, the “shrunken log2 fold change” value is -0.4. In the case of RRIRPRPPRLPRPRPRPKATPRP, the “shrunken log2 fold change” value was 0.463. Consider RRIRMRPPRLPRPRPRPMWAPRP, for which the “shrunken log2 fold change” value is 0.392. In the case of RRIRGRPPRLPRPRPRPSCVPRP, the “shrunken log2 fold change” value amounted to 0.499. The figure for RRIRNRPPRLPRPRPRPENEPRP is -0.00386; for RRIRVRPPRLPRPRPRPHGNPRP it is -0.0331. The figure for RRIRHRPPRLPRPRPRPRHSPRP is -0.173; for RRIRQRPPRLPRPRPRPLIYPRP it is -0.457. In the case of RRIRARPPRLPRPRPRPFTCPRP, the “shrunken log2 fold change” value was 0.0835. For the sequence RRIRHRPPRLPRPRPRPFHAPRP, the “shrunken log2 fold change” value was -0.0061.

Regarding RRIRFRPPRLPRPRPRPCRGPRP, the “shrunken log2 fold change” value is -0.106. On to RRIRPRPPRLPRPRPRPWYYPRP, for which the “shrunken log2 fold change” value is -0.102. On to RRIRERPPRLPRPRPRPDSYPRP, for which the “shrunken log2 fold change” value is -0.00865.

As for RRIRCRPPRLPRPRPRPSIGPRP, the “shrunken log2 fold change” value was -0.098. Consider RRIRFRPPRLPRPRPRPHNPPRP, for which the “shrunken log2 fold change” value was -0.288. As for RRIRKRPPRLPRPRPRPWGLPRP, the “shrunken log2 fold change” value was -0.22.

Consider RRIRIRPPRLPRPRPRPSWCPRP, for which the “shrunken log2 fold change” value was -0.532. The figure for RRIRIRPPRLPRPRPRPQGSPRP is -0.0316. As for RRIRRRPPRLPRPRPRPQGCPRP, the “shrunken log2 fold change” value is -0.189. On to RRIRQRPPRLPRPRPRPRTAPRP, for which the “shrunken log2 fold change” value is 0.0467.

In the case of RRIRRRPPRLPRPRPRPVMRPRP, the “shrunken log2 fold change” value was determined as 0.714.

With RRIRWRPPRLPRPRPRPGQRPRP, the “shrunken log2 fold change” value was determined as 0.153. Turning to RRIRSRPPRLPRPRPRPYHGPRP, the “shrunken log2 fold change” value was -0.397. With RRIRVRPPRLPRPRPRPMKVPRP, the “shrunken log2 fold change” value was -0.194.

As to RRIRCRPPRLPRPRPRPFHNPRP, the “shrunken log2 fold change” value was 2.29. The figure for RRIRNRPPRLPRPRPRPQIDPRP is -0.0557; for RRIRERPPRLPRPRPRPGKCPRP it is -0.205; for RRIRMRPPRLPRPRPRPQHSPRP it is -0.183. As to RRIRMRPPRLPRPRPRPWSWPRP, the “shrunken log2 fold change” value was -0.00716. The figure for RRIRKRPPRLPRPRPRPIMHPRP is -0.204; for RRIRSRPPRLPRPRPRPLDGPRP it is -0.365; for RRIRARPPRLPRPRPRPWNYPRP it is -0.625. The figure for RRIRERPPRLPRPRPRPKWIPRP is -0.54; for RRIRQRPPRLPRPRPRPWPAPRP it is 0.0128. As to RRIRDRPPRLPRPRPRPPQFPRP, the “shrunken log2 fold change” value was -0.15. The figure for RRIRERPPRLPRPRPRPDHMPRP is -0.0199. On to RRIRHRPPRLPRPRPRPIEPPRP, for which the “shrunken log2 fold change” value is -0.133. For the sequence RRIRTRPPRLPRPRPRPGDYPRP, the “shrunken log2 fold change” value turned out to be 0.142. As to RRIRHRPPRLPRPRPRPPGSPRP, the “shrunken log2 fold change” value is 0.0725. The figure for RRIRFRPPRLPRPRPRPLGKPRP is -0.17; for RRIRERPPRLPRPRPRPFTQPRP it is -0.299; for RRIRGRPPRLPRPRPRPLATPRP it is 2.95. With RRIRNRPPRLPRPRPRPSGYPRP, the “shrunken log2 fold change” value was 0.00359.

Take RRIRRRPPRLPRPRPRPFCCPRP: the “shrunken log2 fold change” value was found to be 0.343. For RRIRPRPPRLPRPRPRPHAHPRP, the “shrunken log2 fold change” value was found to be 0.00207.

As for RRIRDRPPRLPRPRPRPTMGPRP, the “shrunken log2 fold change” value was found to be 1.05. On to RRIRCRPPRLPRPRPRPWQAPRP, for which the “shrunken log2 fold change” value came to 0.204.

As to RRIRSRPPRLPRPRPRPGPIPRP, the “shrunken log2 fold change” value worked out at 0.298. The figure for RRIRTRPPRLPRPRPRPWKHPRP is -0.529; for RRIRDRPPRLPRPRPRPHDAPRP it is 0.0126. For the sequence RRIRIRPPRLPRPRPRPFYRPRP, the “shrunken log2 fold change” value is -0.194. In the case of RRIRCRPPRLPRPRPRPVWLPRP, the “shrunken log2 fold change” value is 0.0721. As to RRIRTRPPRLPRPRPRPQFCPRP, the “shrunken log2 fold change” value was -0.486. Turning to RRIRHRPPRLPRPRPRPENHPRP, the “shrunken log2 fold change” value was -0.235. Consider RRIRGRPPRLPRPRPRPVILPRP, for which the “shrunken log2 fold change” value is -0.33. With RRIRRRPPRLPRPRPRPTVEPRP, the “shrunken log2 fold change” value was found to be 1.39.

Consider RRIRPRPPRLPRPRPRPGHKPRP, for which the “shrunken log2 fold change” value is -0.287. As to RRIRRRPPRLPRPRPRPHPQPRP, the “shrunken log2 fold change” value is 0.268. In the case of RRIRLRPPRLPRPRPRPFADPRP, the “shrunken log2 fold change” value was found to be 0.0979. As to RRIRTRPPRLPRPRPRPIWDPRP, the “shrunken log2 fold change” value is -0.414. As to RRIRYRPPRLPRPRPRPCRLPRP, the “shrunken log2 fold change” value was found to be 0.0249. As for RRIRTRPPRLPRPRPRPPQMPRP, the “shrunken log2 fold change” value worked out at 0.185. Turning to RRIRFRPPRLPRPRPRPDITPRP, the “shrunken log2 fold change” value was -0.0339.

RRIRKRPPRLPRPRPRPCYVPRP: the “shrunken log2 fold change” value is -0.69. RRIRARPPRLPRPRPRPDDAPRP: the “shrunken log2 fold change” value is 0.138. The figure for RRIRHRPPRLPRPRPRPAWLPRP is 0.163; for RRIRNRPPRLPRPRPRPPIYPRP it is -0.202; for RRIRDRPPRLPRPRPRPERDPRP it is 0.312. As to RRIRIRPPRLPRPRPRPHCQPRP, the “shrunken log2 fold change” value was -0.173. As to RRIRRRPPRLPRPRPRPMAFPRP, the “shrunken log2 fold change” value turned out to be 0.024. The figure for RRIRFRPPRLPRPRPRPFIHPRP is -0.724; for RRIRDRPPRLPRPRPRPVMFPRP it is 0.16. Consider RRIRHRPPRLPRPRPRPSSIPRP, for which the “shrunken log2 fold change” value is -0.762. With RRIRQRPPRLPRPRPRPPVAPRP, the “shrunken log2 fold change” value was 0.121. For the sequence RRIRARPPRLPRPRPRPIGFPRP, the “shrunken log2 fold change” value is -0.0732. For RRIRHRPPRLPRPRPRPQGMPRP, the “shrunken log2 fold change” value is -0.201. As for RRIRLRPPRLPRPRPRPEMFPRP, the “shrunken log2 fold change” value is -0.00904. For RRIRVRPPRLPRPRPRPYEQPRP, the “shrunken log2 fold change” value was -0.285. The figure for RRIRSRPPRLPRPRPRPRQNPRP is -0.0458. For RRIRMRPPRLPRPRPRPREMPRP, the “shrunken log2 fold change” value came to 0.657. With RRIRDRPPRLPRPRPRPSINPRP, the “shrunken log2 fold change” value is -0.113.

With RRIRARPPRLPRPRPRPHNWPRP, the “shrunken log2 fold change” value worked out at 0.129. The figure for RRIRMRPPRLPRPRPRPVKGPRP is 0.0743; for RRIRFRPPRLPRPRPRPRKDPRP it is -0.302. RRIRRRPPRLPRPRPRPQSQPRP: the “shrunken log2 fold change” value amounted to 0.112. As to RRIRHRPPRLPRPRPRPVDWPRP, the “shrunken log2 fold change” value was 0.15. For the sequence RRIRGRPPRLPRPRPRPTPCPRP, the “shrunken log2 fold change” value was found to be 0.662. Consider RRIRERPPRLPRPRPRPYGLPRP, for which the “shrunken log2 fold change” value was -0.0303. For the sequence RRIRERPPRLPRPRPRPNIRPRP, the “shrunken log2 fold change” value was -0.273. For the sequence RRIRPRPPRLPRPRPRPFMFPRP, the “shrunken log2 fold change” value is -0.361. As to RRIRKRPPRLPRPRPRPWSAPRP, the “shrunken log2 fold change” value stood at 0.0935. The figure for RRIRHRPPRLPRPRPRPNTPPRP is 0.0157; for RRIRRRPPRLPRPRPRPASAPRP it is 0.227. In the case of RRIRWRPPRLPRPRPRPCQKPRP, the “shrunken log2 fold change” value is -0.00776.
